{"source": "IntAct's records for PubMed 35512704", "parents": {"B1": {"name": "Mothers against decapentaplegic homolog 4 (Homo sapiens), Q13485 (parent)", "chain": "MDNMSITNTPTSNDACLSIVHSLMCHRQGGESETFAKRAIESLVKKLKEKKDELDSLITAITTNGAHPSKCVTIQRTLDGRLQVAGRKGFPHVIYARLWRWPDLHKNELKHVKYCQYAFDLKCDSVCVNPYHYERVVSPGIDLSGLTLQSNAPSSMMVKDEYVHDFEGQPSLSTEGHSIQTIQHPPSNRASTETYSTPALLAPSESNATSTANFPNIPVASTSQPASILGGSHSEGLLQIASGPQPGQQQNGFTGQPATYHHNSTTTWTGSRTAPYTPNLPHHQNGHLQHHPPMPPHPGHYWPVHNELAFQPPISNHPAPEYWCSIAYFEMDVQVGETFKVPSSCPIVTVDGYVDPSGGDRFCLGQLSNVHRTEAIERARLHIGKGVQLECKGEGDVWVRCLSDHAVFVQSYYLDREAGRAPGDAVHKIYPSAYIKVFDLRQCHRQMQQQAATAQAAAAAQAAAVAGNIPGPGSVGGIAPAISLSAAAGIGVDDLRRLCILRMSFVKGWGPDYPRQSIKETPCWIEIHLHRALQLLDEVLHTMPIADPQPLD", "partner": "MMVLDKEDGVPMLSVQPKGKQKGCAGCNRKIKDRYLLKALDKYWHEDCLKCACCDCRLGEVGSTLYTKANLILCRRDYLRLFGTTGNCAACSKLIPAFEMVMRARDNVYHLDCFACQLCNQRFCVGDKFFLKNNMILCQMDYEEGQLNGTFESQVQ"}, "B2": {"name": "Mothers against decapentaplegic homolog 4 (Homo sapiens), Q13485 (parent)", "chain": "B1 chain", "partner": "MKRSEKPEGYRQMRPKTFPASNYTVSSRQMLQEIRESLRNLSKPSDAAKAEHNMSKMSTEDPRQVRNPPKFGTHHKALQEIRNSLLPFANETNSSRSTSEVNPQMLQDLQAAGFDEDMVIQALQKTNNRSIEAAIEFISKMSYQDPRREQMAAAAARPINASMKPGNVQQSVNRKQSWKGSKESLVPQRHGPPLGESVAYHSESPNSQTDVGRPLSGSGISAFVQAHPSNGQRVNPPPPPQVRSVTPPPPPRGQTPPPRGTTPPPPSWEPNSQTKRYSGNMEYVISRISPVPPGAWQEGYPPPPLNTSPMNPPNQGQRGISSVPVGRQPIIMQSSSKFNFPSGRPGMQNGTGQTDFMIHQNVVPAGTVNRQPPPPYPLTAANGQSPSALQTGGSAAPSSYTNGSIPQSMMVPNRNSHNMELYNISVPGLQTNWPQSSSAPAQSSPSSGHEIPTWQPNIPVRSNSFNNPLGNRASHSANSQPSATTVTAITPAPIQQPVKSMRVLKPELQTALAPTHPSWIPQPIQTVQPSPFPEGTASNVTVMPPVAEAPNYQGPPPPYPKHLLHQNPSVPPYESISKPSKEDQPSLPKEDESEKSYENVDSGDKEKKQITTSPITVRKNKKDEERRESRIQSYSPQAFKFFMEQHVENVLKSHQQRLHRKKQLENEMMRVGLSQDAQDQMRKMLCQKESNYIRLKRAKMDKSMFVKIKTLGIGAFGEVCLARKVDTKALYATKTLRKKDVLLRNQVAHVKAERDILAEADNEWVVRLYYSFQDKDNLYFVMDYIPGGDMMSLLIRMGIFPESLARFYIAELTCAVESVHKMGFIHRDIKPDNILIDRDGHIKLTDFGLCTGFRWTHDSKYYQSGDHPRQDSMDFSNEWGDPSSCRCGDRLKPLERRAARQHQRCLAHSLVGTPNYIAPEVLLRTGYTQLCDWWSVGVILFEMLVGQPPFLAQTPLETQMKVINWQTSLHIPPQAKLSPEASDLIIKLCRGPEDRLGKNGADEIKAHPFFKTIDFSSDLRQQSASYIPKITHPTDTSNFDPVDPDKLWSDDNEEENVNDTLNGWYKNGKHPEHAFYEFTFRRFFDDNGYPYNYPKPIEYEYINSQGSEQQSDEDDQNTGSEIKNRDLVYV"}, "B3": {"name": "Mothers against decapentaplegic homolog 4 (Homo sapiens), Q13485 (parent)", "chain": "B1 chain", "partner": "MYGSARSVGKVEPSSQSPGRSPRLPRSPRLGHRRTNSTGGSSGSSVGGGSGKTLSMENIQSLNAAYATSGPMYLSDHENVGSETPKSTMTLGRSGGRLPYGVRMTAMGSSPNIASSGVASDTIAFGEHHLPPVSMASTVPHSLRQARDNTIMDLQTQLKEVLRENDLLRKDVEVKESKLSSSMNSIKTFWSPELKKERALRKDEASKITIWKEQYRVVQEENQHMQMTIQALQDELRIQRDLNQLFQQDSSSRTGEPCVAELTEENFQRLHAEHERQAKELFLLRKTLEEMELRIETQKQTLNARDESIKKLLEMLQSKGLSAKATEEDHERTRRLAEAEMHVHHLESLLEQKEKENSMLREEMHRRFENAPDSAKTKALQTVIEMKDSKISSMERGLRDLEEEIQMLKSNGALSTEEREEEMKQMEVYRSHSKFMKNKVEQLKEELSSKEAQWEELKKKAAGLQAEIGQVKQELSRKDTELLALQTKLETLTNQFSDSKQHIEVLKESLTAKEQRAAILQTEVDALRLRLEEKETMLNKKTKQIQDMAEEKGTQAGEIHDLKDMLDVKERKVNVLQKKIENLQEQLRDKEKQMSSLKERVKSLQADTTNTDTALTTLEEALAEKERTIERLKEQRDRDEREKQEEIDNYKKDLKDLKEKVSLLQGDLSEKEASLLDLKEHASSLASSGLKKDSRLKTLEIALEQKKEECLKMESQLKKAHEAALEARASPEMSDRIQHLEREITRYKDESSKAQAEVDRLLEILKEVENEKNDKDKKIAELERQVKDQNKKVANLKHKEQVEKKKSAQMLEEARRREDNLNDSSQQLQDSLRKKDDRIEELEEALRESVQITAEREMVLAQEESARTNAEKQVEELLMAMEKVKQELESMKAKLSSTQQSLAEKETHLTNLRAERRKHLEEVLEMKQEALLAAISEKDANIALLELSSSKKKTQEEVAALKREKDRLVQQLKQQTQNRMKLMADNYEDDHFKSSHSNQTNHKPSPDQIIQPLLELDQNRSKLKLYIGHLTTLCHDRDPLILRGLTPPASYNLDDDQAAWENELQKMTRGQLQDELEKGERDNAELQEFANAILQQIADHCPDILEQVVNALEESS"}, "B4": {"name": "Mothers against decapentaplegic homolog 4 (Homo sapiens), Q13485 (parent)", "chain": "B1 chain", "partner": "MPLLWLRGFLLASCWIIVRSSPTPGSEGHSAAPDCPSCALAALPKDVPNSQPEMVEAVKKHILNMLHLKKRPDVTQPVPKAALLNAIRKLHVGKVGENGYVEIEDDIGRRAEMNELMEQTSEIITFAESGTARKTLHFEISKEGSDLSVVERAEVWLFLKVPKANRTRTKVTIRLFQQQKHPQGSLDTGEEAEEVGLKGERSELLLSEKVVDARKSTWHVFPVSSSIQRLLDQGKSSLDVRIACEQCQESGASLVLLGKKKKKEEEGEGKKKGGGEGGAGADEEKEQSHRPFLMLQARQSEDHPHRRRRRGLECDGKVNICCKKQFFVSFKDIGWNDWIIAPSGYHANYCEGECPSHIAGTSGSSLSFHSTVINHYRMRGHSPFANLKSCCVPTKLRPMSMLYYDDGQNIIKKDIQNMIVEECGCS"}}}
{"variants_of": "B1", "conditions": "with rbtn1_human LMO1, P25800"}
{"variant": "D351H", "effect of a mutation on the interaction": "with no effect"}
{"variants_of": "B2", "conditions": "with lats1_human LATS1, O95835"}
{"variant": "R361C", "effect of a mutation on the interaction": "with no effect"}
{"variants_of": "B2", "conditions": "with lats1_human LATS1, O95835", "remark": "another data set of the same source"}
{"variant": "R361H", "effect of a mutation on the interaction": "with no effect"}
{"variants_of": "B2", "conditions": "with lats1_human LATS1, O95835", "remark": "another data set of the same source"}
{"variant": "D351H", "effect of a mutation on the interaction": "with no effect"}
{"variants_of": "B2", "conditions": "with lats1_human LATS1, O95835", "remark": "another data set of the same source"}
{"variant": "G386D", "effect of a mutation on the interaction": "with no effect"}
{"variants_of": "B2", "conditions": "with lats1_human LATS1, O95835", "remark": "another data set of the same source"}
{"variant": "G386D", "effect of a mutation on the interaction": "increasing interaction strength"}
{"variants_of": "B3", "conditions": "with rb6i2_human ERC1, Q8IUD2"}
{"variant": "D351H", "effect of a mutation on the interaction": "with no effect"}
{"variants_of": "B3", "conditions": "with rb6i2_human ERC1, Q8IUD2", "remark": "another data set of the same source"}
{"variant": "R361H", "effect of a mutation on the interaction": "with no effect"}
{"variants_of": "B3", "conditions": "with rb6i2_human ERC1, Q8IUD2", "remark": "another data set of the same source"}
{"variant": "R361C", "effect of a mutation on the interaction": "with no effect"}
{"variants_of": "B3", "conditions": "with rb6i2_human ERC1, Q8IUD2", "remark": "another data set of the same source"}
{"variant": "G386D", "effect of a mutation on the interaction": "with no effect"}
{"variants_of": "B4", "conditions": "with inhba_human INHBA"}
{"variant": "R361H", "effect of a mutation on the interaction": "with no effect"}
{"variants_of": "B4", "conditions": "with inhba_human INHBA", "remark": "another data set of the same source"}
{"variant": "R361C", "effect of a mutation on the interaction": "with no effect"}
